Data from US20260266848A1, “COMPOSITIONS AND METHODS FOR DIAGNOSING AND TREATING DYSTONIA” (Duke University, priority 2023, published 2026).

B1: Scarb2 (protein, UniProt Q14108 1-478, looked up)
Lysosome membrane protein 2: MGRCCFYTAGTLSLLLLVTSVTLLVARVFQKAVDQSIEKKIVLRNGTEAFDSWEKPPLPVYTQFYFFNVTNPEEILRGETPRVEEVGPYTYRELRNKANIQFGDNGTTISAVSNKAYVFERDQSVGDPKIDLIRTLNIPVLTVIEWSQVHFLREIIEAMLKAYQQKLFVTHTVDELLWGYKDEILSLIHVFRPDISPYFGLFYEKNGTNDGDYVFLTGEDSYLNFTKIVEWNGKTSLDWWITDKCNMINGTDGDSFHPLITKDEVLYVFPSDFCRSVYITFSDYESVQGLPAFRYKVPAEILANTSDNAGFCIPEGNCLGSGVLNVSICKNGAPIIMSFPHFYQADERFVSAIEGMHPNQEDHETFVDINPLTGIILKAAKRFQINIYVKKLDDFVETGDIRTMVFPVMYLNESVHIDKETASRLKSMINTTLIITNIPYIIMALGVFFGLVFTWLACKGQGSMDEGTADERAPLIRT
B2: Slc25a5 (protein, UniProt P51881 1-298, looked up)
ADP/ATP translocase 2: MTDAAVSFAKDFLAGGVAAAISKTAVAPIERVKLLLQVQHASKQITADKQYKGIIDCVVRIPKEQGVLSFWRGNLANVIRYFPTQALNFAFKDKYKQIFLGGVDKRTQFWRYFAGNLASGGAAGATSLCFVYPLDFARTRLAADVGKAGAEREFKGLGDCLVKIYKSDGIKGLYQGFNVSVQGIIIYRAAYFGIYDTAKGMLPDPKNTHIFISWMIAQSVTAVAGLTSYPFDTVRRRMMMQSGRKGTDIMYTGTLDCWRKIARDEGSKAFFKGAWSNVLRGMGGAFVLVLYDEIKKYT
B3: Apom (protein, UniProt Q9Z1R3 1-190, looked up)
Apolipoprotein M: MFHQVWAALLSLYGLLFNSMNQCPEHSQLTALGMDDTETPEPHLGLWYFIAGAASTTEELATFDPVDNIVFNMAAGSAPRQLQLRATIRTKSGVCVPRKWTYRLTEGKGNMELRTEGRPDMKTDLFSSSCPGGIMLKETGQGYQRFLLYNRSPHPPEKCVEEFQSLTSCLDFKAFLVTPRNQEACPLSSK
B4: Ilf3 (protein, UniProt Q9Z1X4 1-898, looked up)
Interleukin enhancer-binding …: MRPMRIFVNDDRHVMAKHSSVYPTQEELEAVQNMVSHTERALKAVSDWIDEQEKGNSELSEAENMDTPPDDESKEGAGEQKAEHMTRTLRGVMRVGLVAKGLLLKGDLDLELVLLCKEKPTTALLDKVADNLAIQLTTVTEDKYEILQSVDDAAIVIKNTKEPPLSLTIHLTSPVVREEMEKVLAGETLSVNDPPDVLDRQKCLAALASLRHAKWFQARANGLKSCVIVIRVLRDLCTRVPTWGPLRGWPLELLCEKSIGTANRPMGAGEALRRVLECLASGIVMPDGSGIYDPCEKEATDAIGHLDRQQREDITQSAQHALRLAAFGQLHKVLGMDPLPSKMPKKPKNENPVDYTVQIPPSTTYAITPMKRPMEEDGEEKSPSKKKKKIQKKEEKADPPQAMNALMRLNQLKPGLQYKLISQTGPVHAPIFTMSVEVDGSNFEASGPSKKTAKLHVAVKVLQDMGLPTGAEGRDSSKGEDSAEESDGKPAIVAPPPVVEAVSNPSSVFPSDATTEQGPILTKHGKNPVMELNEKRRGLKYELISETGGSHDKRFVMEVEVDGQKFQGAGSNKKVAKAYAALAALEKLFPDTPLALEANKKKRTPVPVRGGPKFAAKPHNPGFGMGGPMHNEVPPPPNIRGRGRGGNIRGRGRGRGFGGANHGGGYMNAGAGYGSYGYSSNSATAGYSQFYSNGGHSGNAGGGGSGGGGGSSSYSSYYQGDSYNSPVPPKHAGKKPLHGGQQKASYSSGYQSHQGQQQPYNQSQYSSYGTPQGKQKGYGHGQGSYSSYSNSYNSPGGGGGSDYSYDSKFNYSGSGGRSGGNSYGSSGSSSYNTGSHGGYGTGSGGSSSYQGKQGGYSSQSNYSSPGSSQSYSGPASSYQSSQGGYSRNTEHSMNYQYR
B5: Esyt1 (protein, UniProt Q3U7R1 1-1092, looked up)
Extended synaptotagmin-1: MEHSPEEGASPEPSGQPPATDSTRDGGSGVPPAGPGAASEALAVLTSFGRRLLVLVPVYLAGAAGLSVGFVLFGLALYLGWRRVRDGKERSLRAARQLLDDEERITAETLYMSHRELPAWVSFPDVEKAEWLNKIVAQVWPFLGQYMEKLLAETVAPAVRGANPHLQTFTFTRVELGEKPLRIIGVKVHPSQRKDQILLDLNVSYVGDVQIDVEVKKYFCKAGVKGMQLHGVLRVILEPLTGDLPIVGAVSMFFIKRPTLDINWTGMTNLLDIPGLSSLSDTMIMDSIAAFLVLPNRLLVPLVPDLQDVAQLRSPLPRGIIRIHLLAARGLSSKDKYVKGLIEGKSDPYALVRVGTQTFCSRVIDEELNPHWGETYEVIVHEVPGQEIEVEVFDKDPDKDDFLGRMKLDVGKVLQAGVLDNWYPLQGGQGQVHLRLEWLSLLPDAEKLDQVLQWNRGITSRPEPPSAAILVVYLDRAQDLPLKKGNKEPNPMVQLSVQDVTRESKATYSTNSPVWEEAFRFFLQDPRSQELDVQVKDDSRALTLGALTLPLARLLTASELTLDQWFQLSSSGPNSRLYMKLVMRILYLDYSEIRFPTVPGAQDWDRESLETGSSVDAPPRPYHTTPNSHFGTENVLRIHVLEAQDLIAKDRFLGGLVKGKSDPYVKLKVAGKSFRTHVVREDLNPRWNEVFEVIVTSIPGQELEIEVFDKDLDKDDFLGRYKVSLTTVLNSGFLDEWLTLEDVPSGRLHLRLERLTPRPTAAELEEVLQVNSLIQTQKSSELAAALLSVFLERAEDLPLRKGTKPPSPYATITVGETSHKTKTVSQSSAPVWEESASFLIRKPHAESLELQVRGEGTGTLGSVSLPLSELLQEDQLCLDHWFALSGQGQVLMRAQLGILVSQHSGVEAHSHSYSHSHSSSSLNDEPEALGGPTHPASPVLEVRHRLTHGDSPSEAPVGPLGQVKLTVWYHSDEQKLISIIHSCRALRQNGRDLPDPYVSVLLLPDKNRSTKRKTPQKKRTLNPEFNERFEWDLPLDGTLRRKLDVSVKSNSSFMSRERELLGKVQLDLAEIDLSQGAAQWYDLMDDRDKGGS
B6: Uba3 (protein, UniProt Q8C878 2-462, looked up)
NEDD8-activating enzyme E1 …: ADGEEPEKKRRRIEELLAEKMAVDGGCGDTGDWEGRWNHVKKFLERSGPFTHPDFEPSTESLQFLLDTCKVLVIGAGGLGCELLKNLALSGFRQIHVIDMDTIDVSNLNRQFLFRPKDVGRPKAEVAAEFLNDRVPNCNVVPHFNKIQDFNDTFYRQFHIIVCGLDSIIARRWINGMLISLLNYEDGVLDPSSIVPLIDGGTEGFKGNARVILPGMTACIECTLELYPPQVNFPMCTIASMPRLPEHCIEYVRMLQWPKEQPFGDGVPLDGDDPEHIQWIFQKSIERASQYNIRGVTYRLTQGVVKRIIPAVASTNAVIAAVCATEVFKIATSAYIPLNNYLVFNDVDGLYTYTFEAERKENCPACSQLPQNIQFSPSAKLQEVLDYLTNSASLQMKSPAITATLEGKNRTLYLQSVTSIEERTRPNLSKTLKELGLVDGQELAVADVTTPQTVLFKLHFT
B7: Slc44a1 (protein, UniProt Q6X893 2-653, looked up)
Choline transporter-like …: GCCSSASAAQSSKREWKPLEDRSCTDIPWLLLFVLFCIGMGFICGFSVATGAAARLVSGYDSYGNICGQRNAKLEAIPNSGLDHTHRKYVFFLDPCNLDLINRKIKSIALCVAACPRQELKTLSDVQKFAEINGSALCSYNIKPSEYTLTSKSSGFCPKLPVPASAPIPFFHRCAPVNISCYAKFAEALITFVSDNSVLHRLISGVMTSKEIILGLCLLSLVLSMILMVIIRYISRVLVWILTVLVILGSLGGTGVLWWLYAKQRRSPKEAVIPEQLQIAEDNLRALLIYAISATVFTVILFLIMLVMRKRVALTIALFHVAGKVFIHLPLLVFQPFWTFFALVLFWAYWIMTLLFLGTTGSAVQNEQGFVEYKISGPLQYMWWYHVVGLIWISEFILACQQMTVAGAVVTYYFTRDKRNLPFTPILASVNRLIRYHLGTVAKGSFIITLVKIPRMVLMYIHSQLKGKENACARCMLKSCICCLWCLEKCLSYLNQNAYTATAINSTNFCTSAKDAFVILVENALRVAAINTVGDFMLFLGKVLIVCSTGLAGIMLLNYQQDYTVWVLPLIIVCLFAFLVAHCFLSIYEMVVDVLFLCFAIDTKYNDGSPGREFYMDKVLMEFVENSRKAMKEAGKGGAADARELKPMLRKR

Test system: WT MEF EVs
Test: Quantitative LC-MS/MS proteomics of EVs from ISRIB-treated WT MEF cultures
Type: cell-based, mouse
Parameters: key to ISRIB and DYT Parallel Direction / ISRIB and DYT Parallel Direction, Ctdsp1 / ISRIB and DYT Parallel Direction, Pcdh19 / ISRIB and DYT Parallel Direction, Tspan7 / ISRIB and DYT Parallel Direction, Myo1e / ISRIB and DYT Parallel Direction, Plpp3 / ISRIB and DYT Parallel Direction, Sh3bp4 / ISRIB and DYT Parallel Direction, Dnajc7 / ISRIB and DYT Parallel Direction, Drg1 / ISRIB and DYT Parallel Direction, Maea: YES = protein abundance effect similar to DYT/WT
Conditions: EV protein abundance, ISRIB-treated WT vs WT

| Molecule | WT + ISRIB/WT Cohen's d |
| --- | --- |
| B1 | 0.09 |
| B2 | −0.54 |
| B3 | 2.53 |
| B4 | −4.89 |
| B5 | 0.18 |
| B6 | −1.68 |
| B7 | 0.80 |

Same assay, conditions: EV protein abundance, WT + ISRIB vs WT, direction compared with DYT/WT

| Molecule | ISRIB and DYT Parallel Direction |
| --- | --- |
| B2 | YES |
| B3 | YES |
| B4 | YES |
| B6 | YES |

Test system: DYT-TOR1A MEF EVs
Test: Quantitative LC-MS/MS proteomics of EVs from drug-treated DYT-TOR1A MEF cultures (ritonavir, salubrinal)
Type: cell-based, mouse
Parameters: key to RTV Corrective Direction / RTV Corrective Direction, Grwd1 / RTV Corrective Direction, Srrm2 / RTV Corrective Direction, Rbm17 / RTV Corrective Direction, Dcaf8 / RTV Corrective Direction, Edil3 / RTV Corrective Direction, Timp3 / RTV Corrective Direction, Heatr3 / RTV Corrective Direction, Brd4 / RTV Corrective Direction, P3h4 / RTV Corrective Direction, Pacsin3 / RTV Corrective Direction, Naa50 / RTV Corrective Direction, Lpar6 / RTV Corrective Direction, Ndrg1 / RTV Corrective Direction, Kntc1 / RTV Corrective Direction, Cdk11b / RTV Corrective Direction, Sumo1 / RTV Corrective Direction, Lsm4 / RTV Corrective Direction, Hmga2 / RTV Corrective Direction, Cstf1 / RTV Corrective Direction, Tes / RTV Corrective Direction, Sbno1 / RTV Corrective Direction, Unc119b / RTV Corrective Direction, Cfdp1 / RTV Corrective Direction, Sec61b: YES = protein abundance effect opposite to DYT/WT
Conditions: EV protein abundance, DYT + RTV (ritonavir) vs DYT, direction compared with DYT/WT

| Molecule | RTV Corrective Direction |
| --- | --- |
| B1 | YES |
| B5 | YES |
| B6 | YES |
| B7 | YES |

Same assay, conditions: EV protein abundance, ritonavir (RTV)-treated DYT vs DYT

| Molecule | DYT + RTV/DYT Cohen's d |
| --- | --- |
| B1 | 0.24 |
| B2 | −0.78 |
| B3 | 0.40 |
| B4 | −1.23 |
| B5 | 1.25 |
| B6 | 10.01 |
| B7 | 0.84 |
